From publication PMC5471280, “An alternative conformation of ERβ bound to estradiol reveals H12 in a stable antagonist position” (Scientific Reports, 2017)

Biological target: the molecule itself
Test: crystal structure; ERβ LBD-E2 complex at 5 mg/mL; sitting drop, 19 °C; 0.1 M Na-citrate pH 5.5, 10% PEG-4000, 10% isopropanol; no coactivator peptide; 2.5 Å; dimer in the asymmetric unit

B1: human estrogen receptor beta ligand-binding domain (residues 256-501) bound to 17β-estradiol (domain or fragment, UniProt Q92731 256-501, looked up)
chain: RELLLDALSPEQLVLTLLEAEPPHVLISRPSAPFTEASMMMSLTKLADKELVHMISWAKKIPGFVELSLFDQVRLLESCWMEVLMMGLMWRSIDHPGKLIFAPDLVLDRDEGKCVEGILEIFDMLLATTSRFRELKLQHKEYLCVKAMILLNSSMYPLVTATQDADSSRKLAHLLNAVTDALVWVIAKSGISSQQQSMRLANLLMLLSHVRHASNKGMEHLLNMKCKNVVPVYDLLLEMLNAHVLR
notes: The tag was removed with the SUMO protease Ulp1; also called ERβ LBD; hERβ LBD; source: E. coli BL21 (DE3)RIL, purified (NiNTA, Ulp1 cleavage, Superdex-75 SEC)
- stoichiometry N: 2
